This is an account of results in patent US20260374889 (published 2026).

The experiment has as its target T1, human BCMA on CHO cells (human).
T1 chain: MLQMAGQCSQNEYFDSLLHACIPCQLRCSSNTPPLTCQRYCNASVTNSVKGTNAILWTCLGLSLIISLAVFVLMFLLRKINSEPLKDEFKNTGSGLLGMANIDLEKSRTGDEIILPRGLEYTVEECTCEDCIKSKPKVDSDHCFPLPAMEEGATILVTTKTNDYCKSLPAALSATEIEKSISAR
The experiment is described as follows: FACS. For orientation: Flow cytometry measures light scatter and fluorescence of single cells or particles in a stream.

For orientation: EC50 means the concentration needed to bring the measured effect to its halfway point. A low value points to higher potency in that assay.

Changes are numbered by the printed parent chain.

B1: P1AG7207 BCMA arm (antibody, V domains shown)
VH: EVQLLESGGGLVQPGGSLRLSCAASGFTFSNAWMDWVRQAPGKGLEWVSQITAKSNNYATYYADSVKGRFTISRDNSKNTLYLQMNSLRAEDTAVYYCTDDGYHWGQGTLVTVSS
VL: DIQMTQSPSSLSASVGDRVTITCRASEDIRNGLAWYQQKPGKAPKLLIYNANSLHTGVPSRFSGSGSGTDFTLTISSLQPEDFATYYCEDTSKYPYTFGQGTKLEIK
With B1, a half-maximal response (EC50) required 16.3 nM.

B2: P1AG7196 BCMA arm (antibody, V domains shown)
VH: B1 VH
VL: B1 VL
As for B2, the response was half-maximal at 18.1 nM (EC50).

B3: BCMA (PR)-CD28v8 P1AF7062, BCMA arm (antibody, V domains shown)
VH: EVQLLESGGGLVQPGGSLRLSCAASGFTFSSYAMNWVRQAPGKGLEWVSAITASGGSTYYADSVKGRFTISRDNSKNTLYLQMNSLRAEDTAVYYCARYWPMSLWGQGTLVTVSS
VL: EIVLTQSPGTLSLSPGERATLSCRASQSVSAYYLAWYQQKPGQAPRLLMYDASIRATGIPDRFSGSGSGTDFTLTISRLEPEDFAVYYCQQYERWPLTFGQGTKVEIKR
As to B3, the EC50 amounted to 5.55 nM.

B4: BCMA (PR)-CD28v15 P1AE9053, BCMA arm (antibody, V domains shown)
VH: B3 VH
VL: B3 VL
With B4, the EC50 was found to be 7.63 nM.

B5: P1AG7285 BCMA arm (antibody, V domains shown)
VH: QVQLVQSGAEVKKPGASVKVSCKASGYTFTNYWMHWVRQAPGQGLEWMGIIHPNSGSTNYNEKFQGRVTMTRDTSTSTVYMELSSLRSEDTAVYYCARGIYDYPFAYWGQGTLVTVSS
VL: DIQMTQSPSSLSASVGDRVTITCRASESVSIHGTHLMHWYQQKPGKAPKLLIYAASSLQSGVPSRFSGSGSETDFTLTISSLQPEDFATYYCQQSIEDPYTFGGGTKVEIK
The molecule B5 displayed an EC50 of 25.6 nM.

B6: P1AG7191 BCMA arm (antibody, V domains shown)
VH: B5 VH
VL: B5 VL
For the molecule B6, the response was half-maximal at 19.8 nM (EC50).

B7: P1AG7200 BCMA arm (antibody, V domains shown)
VH: B5 VH
VL: B5 VL with S57N, Q59E, E72G
As for B7, the half-maximal effective concentration (EC50) was determined as 13.8 nM.

B8: P1AG7215 BCMA arm (antibody, V domains shown)
VH: B5 VH
VL: B5 VL with S57N, Q59E, E72G
In turn, B8 registered an EC50 of 16.5 nM.
